Laboratory results published in a protein production outcome set (Wang et al. 2014).

experiment: label from the status in PepcDB records

Question: With “MNLFRSERGALALLLGVSALILLLGLGSRELWGPETRWANIALQMLQSGDYFDPYLKGAPYYDKPLPSYWLITASAWLMGGLGHWSLRLSSVIAAWLSIWLVYLIGERLFHKGTGLIAGWMLATTFYFAFWARVATADVLTVCGVLAAVWWYWRGPEDTRLGRYTVFFLILAATSLLKGLIGFVLPGLILLPHLLSQGRWKRHLNLRLVLALSIAALFYMVPFVLSHLYGAPSYGESGLSLVFRENVVRFFNPFDHVGPIYTYLIYLPAYTLPWAPCWILGLWLAARHWRQLQPNERWLVWALGLLFLFFTASGSRRSYYVLPLVPFAQLLGAWWLNRRLQLRQAVGKPVSRGWPLGFSCAALVMLLVLGVAYPWSNSGGGVMQFSADTRAAASRIAPWNQWRMVMVEIDNKLPMYLQNQGAPFYYVAETADFPRNGSSADFMAWLDKTSGQHWDPQRTLIFVQQKHDEPLMLGYLGEDHQLVRTTPTNGERLAKKPAQGSVAFIPRIPGN” as the sequence, how does the protein production read?
Answer: Its protein production is “failed”.

Question: Which protein production does the source give for “MNLFYRCRFFLFNNKVKNRGRGNKVVTNSASAKACTILFNGNNNTVILGESASLRGCLIIMSGDDHVLEIGAHTSIYKSNIAFEDHHCLISIGDYTTIQENGGISAVEPYSKIIIGKRCMFSVDVDIRNTDSHSIIKLDTGERINPGKNIFIDDKVWLGAYVQVLKGVSIGNNSIVGIRSLVTKDIPSHALAVGVPAKVIKTNVDWREERI” here?
Answer: The protein production was “failed”.

Question: For “MNLHTKTWVQRLPVPIDVAWDFFSQPGNLARITPPEMMLKAEGGNAGTAIYEGMKLNFVLYPFMMIPVRWTTEIMKVSKPDFFEDRQLSGPYEQWYHRHLFRDIEGGTEMTDIVEYALPFDLFGEVVEALIVGPRLDEVFEYRRCRVAEILGEMASETRLEHHHHHH”, which protein production is on record?
Answer: Its protein production is “not failed”.

Question: Which protein production does the source give for “MNLIINDKTASSSVGQTIGKAARLNHAHVGYVCGGHGLCQACYITVQEGADCLAPLTDVEKAFLSPRQIAAGGRMACQATIAKEGTVKVLSRPEEVRRMVFSNPFQLIGYAADMGKDTAQQIVPGVQNLIGRIQRGEMGGKDALGDMIESIQGAAGLVVEAIQQGPMALPIPFKEQIADLISKLPLPQIQLPSISLPQLPSISFPQLPFSLPKLPFSLPFLPQQPQATASLEKVTITVQPPAKD” here?
Answer: Its protein production is “failed”.

Question: With “MNLILTILSALGSFIVTNVDDIFVLMLLFSQARSQAKTGNSGIVSMESKGNRIYPRDIVIGQYLGFALLVLISLLATFGVTLIPDQWVGLLGLIPIYLGVKLFIKGEDEDEGNILSNLNKFNKFYLSVAFITFANGGDNIGIYVPFFSTLNNNQLIITVVTFFIMVAVWCLIGYRLARFRYVSETLEKYGRWIIPIVFIGLGIYIMVENETFRAILSLVN” as the sequence, how does the protein production read?
Answer: Its protein production is “failed”.

Question: With “MNLLRHAVAGLCLVASAGCSGQDVMVRKQSEMETRLEHLHQASTTSGVRLAELSAEVTALRERLAAQGAELEQIKAGQRELQANITERLAQVAPAAGTPSRIEVVSRDGAPREKDGPPDAYLKAFGLYSANNFAGAVEAFQAFLAEHPDSEYAGNALYWIGECHYSRSDLPRALDAFRLVAERYPASTKVPDALLKSGYTLYAMKEPERAREILESLAAKYPRSPAAAKARERLAVATPKKQ” as the sequence, how does the protein production read?
Answer: Its protein production is “failed”.

Question: With “MNLLTNEKTIKVFSSLIYTSLIISLIAMIFDVKLASKIFNTIGIISAILLFINKREIKKESMLIPLSILFLCVTNLIWEQLYKNSGSEIIGLYHSYHNVMKILFLGSSLTLFVMTFSSKHPLTKNALNIIYTIPFFLVLYYLLSEPEVRFSISDKIATSSAYMISFIGILTSQVILLKTEKRNLFFYFINHIIFFTIIVLSGTRAAILAYPLLSAIVLIPAILKDKKINLKLIILYIMVNIVCLVACQKTIMSRSENLISDINMYNQSNSESSVGARIAMYRSGLTSFIHAPMGQSAESRQLDIQKQAEQNPSLSGAALLTGIHLHNELIEAISLKGIIGGMALLLLYASLFYFSSFILKDYALTSLTLSLVIYGLSDVIFYGKNATTVWIVTYCLSILLVKRNRGVQ” as the sequence, how does the protein production read?
Answer: The protein production was “failed”.

Question: Which protein production does the source give for “MNLLVIGGHERMEKDYMVMAKKKGYKTKVYTTMSSKLNNSIGRPDAVVILTSTVSHKMSRTVESQAKKQDILIVRHKNSSKVAFNECLDMVDECLGNCSKCKLKDKQKQKNILEHHHHHH” here?
Answer: The protein production was “failed”.

Question: For “MNLPMTMSLQTVSFEEFITTIAAALGCGLLVGLERERSKLKHEYKTFAGFRSFAISSLLGAICFLFGTAIGIVGALLIGAISIVSLKNQPNDPGVTTELAFIMTYFIGALCIWNISLAAGLAVIMTIILLAKQSMHGIASQWITESELRDGIFLLALLLIALPLVPNKPFWGPVLNPHVILKLLTLILFVQALAHIAKRLLSSKNALLLSSLASGFVSSTATIASLGLEVRSGRANAKTNAGAALMSCVSTLVQTLIIVVGISLAWFKLIIFPTLIALAFLAVWAFILLRKAEPSTTSPELDSRMFSLKEAVIIAGTLTLIQAGVYGLSLYLGNAGLIAGTLLASLFEIHAAIAAVIVQGEPNNSQTSLLIAFMGGFAVHAIAKSINSAISGGLHYALAFIPAQILHMTIFIGLLWMNIHWF”, which protein production is on record?
Answer: Its protein production is “failed”.

Question: For “MNLRLAAALCAALSLCAVLAVPANFPALGGDARLTLAVFALATCAWIGTPIDDTYIALGAGLALTATGVISSDTLFGTLGEDTVWLLICAFVLAAAVARTGLAGRAAAFLVGGARTVRQLVHLTTAALVVTAFAMPATSGRAALALPVFLALAKVLADRKRLVVMLALLFPTVILLSAVATLIGAGAHLITVSVLWEATGDRIGFTQWLLLGLPLAVASSHLAAETVLLTTTRRADRAGPVRITAEEIQRHSESPVTGPWTQAEKRCALLLATVVALWCSEPLHRVSPAVVALIGAVVASSPALGTVRLKDALKTVPWSLLLFMAATMAMGVALADSGAAGWLVSGLPADVAPAVFLGVVVAVSTAAHLVLQSRSARSSVLVPLVIAAAVGAGVNPVAAALASTAAAGFCHTLPASAKPVTLFSDVPGVPTYTPRDLLRLSAVLAPLTALLVLFFAAAVWPLLGVPVTR”, which protein production is on record?
Answer: Its protein production is “failed”.

Question: For “MNLYFRLFWLLFWRTRHCRKIDFLGTSRITYRALPSDCDINFHLTNSRYPAFMDLARTYMLAEMGLLKRFLKLKWMPIVNAAEFTYIRDIKPLKKFEIETKVVGWDEKYFYIEQRFISERGLHCIVHVRGVFVCKGKQIPLEVLVKEAGYTAPAPELPPEVVKWKAFLQLKKERNL”, which protein production is on record?
Answer: Its protein production is “failed”.

Question: For “MNMKFTKILVQIAALYVFYMVGTWVQEMLNIPIPGSLIGMFLLLVLLSLKVLPVKWFDLGAETLVAIMPFLLIPPTLGLMNYGAFFMSKGISLFITVVASTFLIIIVAGHTGQYLANRKERESR”, which protein production is on record?
Answer: The protein production was “failed”.

Question: Which protein production does the source give for “MNMLIDISTEILMSLLFFYLFYRIMVKGTNGVIEILVEAMMFSMFVGLILYFQTRITFTTASMAVDMPMAIMGGAVAWAYFTRNSSMTTSRKSAFISLLISNEVAMAYFLTIITYPNIISHGVFYTLVHSVSSYLFIASMEIEMILSLLFLEKDSIKKIVFSGVVFSGLFNPFFMPQSNFSLYGTIYFTAVMVFFMAILFEIIAVKFDTMNFGKIVMITLFFGLMGFSAAGLFASIVFGSLITLLLFDISMMAQMAFYFYFLFRNTEIRGRPGWSYNRYSMFYVLLFSFAAEWLASASIISVVNGVNGVVPFLSNFGVGVYSGIVPAILNAIFIFGSVTNSYVFLIIMGVEMASLVIVRIGRLRWKEKNGISHSP” here?
Answer: The protein production was “failed”.

Question: With “MNMLVINGTPRKHGRTRIAASYIAALYHTDLIDLSEFVLPVFNGEAEQSELLKVQELKQRVTKADAIVLLSPEYHSGMSGALKNALDFLSSEQFKYKPVALLAVAGGGKGGINALNNMRTVMRGVYANVIPKQLVLDPVHIDVENATVAENIKESIKELVEELSMFAKAGNPGV” as the sequence, how does the protein production read?
Answer: Its protein production is “not failed”.

Question: For “MNMNHYRPVILADQRVVSDFELDPLTRKISIKILQGHEQGNKGMVDTLRQNLQQRLGVPVEIPLALMNHLVKLVRDGNEVITATLAAGNDINEDGKAASYQVIDAEPGDHTGVQVGLAIDIGTTTVVVYLVNMVNGDIIAKASDYNGQIKLGDDILSRIMAAREEKGLQELQALIVNTLNALIQQLCLEAELKPQAITGVCIGANTTMVHLCLGLDPGSICRAPYRPAVNNAGIFCAGEIGLAVHPLAPTYCLPSIGSYIGGDVLAGILVSGMHKQEEVALLADIGTNGEFILGNQEWLVGCAGAAGPALEGGVTEWGIRAEQGAVDQVSIDSEHHVGYTTIDNAPARGICGSGLIDSLAELFLNGLINRAARFTDGRERFTIVPADESATGKEIFISQKDINSLMRTKGAVNAALEVLMESVGCQWEEIAKFYAAGAFGQYLPIESAVTIGLYPDLPREQMLRLGNSSGEGARQVLLSNSKRQEIEEIAGKITYFEMNASSSFMDKYGGSRFLPHTNMDLFPSVQEKLAVRQRSRC”, which protein production is on record?
Answer: The protein production was “failed”.

Question: Which protein production does the source give for “MNMNITYISIYKTSLPVLVSLLMEYLIGFTDTAYLGRVGETELAASAIAGTYYMIIYMIGFGFSIGAQILIAQYNGNQQYKEAGKILSQGILFLLIIAVIVILFSSIISPIILKSIIDSESVLQAVLQYLDWRIYGFFFSFTIIMFRAFYIGIIHTSALMLNSITMVAINVILNYILIFGALGIPVLGISGAAIASVISEAVAVIHFIIYTQKNVSSCKYGLKRRITIDCTILKKILSISIWMMLQHGLVFGSWFVFFITMEHFGERSLAITNIVRNISSFLFLFVQAFASVVSSLVGNLIGENKGNSILYVCKKVIFLCYMTILPIMVLFLFFPSSTLRIYSDNTVLVFEAIPTLKVMLTSYLIAVPTFVFFSAVSGIGHAVASLLIAFISLVVYIVYVETISHFSSSVPLLWTSEHIYFSCVFILSLYHIHHSWMSFINQDKKLTTNIS” here?
Answer: The protein production was “failed”.

Question: For “MNNHQTPQATSPLAAWLCYLEHLHSQPIELGLERVKQVAERLDLLKPAPKIFTVAGTNGKGTTCCTLEAILLAAGLRVGVYSSPHLLRYTERVRIQGQELSEAEHSHSFAQIEAGRGDISLTYFEFGTLSALQLFKQAKLDVVILEVGLGGRLDATNIVDSDVAAITSIALDHTDWLGYDRESIGREKAGVFRGGKPAVVGEPDMPQSIADVAAELGAQLYRRDVAWKFSQQEPFDQQEPVDQQINGWHWQCGERQLTGLPVPNVPLANAATALAVLHYSELPLSDEAIRQGLQAASLPGRFQVVSEQPLLILDVAHNPHAARYLVNRLAQVINPVNASKQGKVRAVVGMLSDKDIAGTLACLSERVDEWYCAPLEGPRGASAGQLAEHLVSARQFSDVETAWRQAMQDADTQDVVIVCGSFHTVAHVMAALHL”, which protein production is on record?
Answer: Its protein production is “not failed”.

Question: Which protein production does the source give for “MNNINTIIQREYMIRVRKKSFLVMTILMPILFVGLVSLPIVLAQLGGDMKTIAIADRTGEYEQLFKENDEFRFVHAEKTAEEYRKMGADKSGIDAVLEIRQDLLEDPNAVAIYGYKQLPASVSNHISRILSDYLSDKKIASYNIPDIKQILADSKIELSVHTYKWSEDGTNERTSGELASGISMMMMVVIFFLIMTLAAMVQAGVLEEKKNRIMEVMVSSTRPFNLMMGKIIGIGLVGLTQLICWGVLTVLLLTVAQIAFLGNLYSPEALSRMQASDITGMASSMNAEDFAEMKEVMNIIGGINFGELFVMFLIFFIGGYLLYSSIFAVIGSMVSNDEDTSQFMMPVMILLMFGFYAAYGSMNNPEGSLAFWCSLIPFTSPLVMMVRLPYDVPLWQELLSIGLLYGCFVLMTWIGAKIYRVGVLMYGKKPSIKEIIRWINYK” here?
Answer: Its protein production is “failed”.

Question: For “MNNIRQLTKDEYPKAIELSWQVFTITGKEDFNNEGLEFFKSFIYNKKCINEIIFYGSFDNEALTGILGIKSNGKHISLFFIKPEYHRHGLGKKLFHYASTLHPSIETTVNSSTYAIPFYRSLGFAVVGEKQNYHGLCSTPMRRYHAVFVQKNKYTLRTWQTEDAHSLVQELNNKKIWDNCRNVFPHPYRLEHAETFIDLIQKKEGIHDFCIEVNGKAVGNIGFTPGTDVECFNAEVGYVIGEKYWNQGIVTDALQEAIYHYFTYTNTIRIFALVFEHNLPSMRVLEKAGFNKVGIMTKSIFKNGHFTNAHLFELLKNVLEHHHHHH”, which protein production is on record?
Answer: Its protein production is “failed”.
